Three substances from paper PMC11786531 can be followed below.

For this test, the target named is heparan sulfate proteoglycans. The test can be described thus: SPR competition (HSPG with LF or LF mutant flowed over PEDV S protein immobilised on a CM5 chip). Conditions: parent: est. 5.0; read off a plot.

As for “Lactoferrin (from UniProt P14632) P1963L”, the response came to 69 RU.

On to “Lactoferrin (from UniProt P14632) P1641L”, for which the response amounted to 69 RU.

On to “Lactoferrin (from UniProt P14632) G1607L”, for which the response came out at 3.5 RU.
